Test results from paper PMC11952088 (Science Advances, 2025).

Target: SARS-CoV-2 XBB.1.5 RBD (BLI) (SARS-CoV-2, Omicron XBB.1.5, strain)
Test: BLI
Conditions: both partners purified

B1: AZD3152 (antibody, V domains shown)
VH: EVQLVESGGGLVQPGRSLRLSCAASGFPFDDYAIHWVRLAPGKGLEWVSSISWDSGSIGYADSVKGRFTISRDNAKNSLYLQMNSLRAEDTALYYCAKGAFPGYSSGWYYGLEVWGQGTTVTVSS
VL: QSVVTQPPSASGSLGQSVTISCTGTSSDVGGYNYVSWYQQHPGKAPKLMIFEVSKRPSGVPDRFSGSKSGNTASLTVSGLQAEDEADYYCSSYAGNKGVFGGGTKLTVL
Kd: 2 nM
